The values below come from patent US11820973B2, “Methods and system for interfering with viability of bacteria and related compounds and compositions” (CALIFORNIA INSTITUTE OF TECHNOLOGY, priority 2011, dated 2023).

The test system of assay [1] is P. aeruginosa PA14 biofilm. The assay is described as follows: MBEC assay, anaerobic biofilm prevention. The class given is cell-based, Pseudomonas aeruginosa. The following applies: 100 μM conalbumin, ˜10 μM Fe(II) and 10 μM Fe(III) present. How it is done: (§1) In some examples, biofilm prevention and dissolution were measured via a high-throughput biofilm assay (MBEC Physiology and Genetics Assay) consisting of a 96-well plate into which a 96-peg plastic lid fits. This lid also fits over a standard 96-well plate, which was subsequently used to test the efficacy of iron chelators. Inoculum was prepared by diluting (30-fold) a 1.0 McFarland suspension of P. aeruginosa PA14 in TSB. 150 μl, was dispensed into each of the 60 inner wells, while 200 μl, of sterile trypticase soy broth (TSB) was placed in each perimeter well. For dissolution experiments, plates were incubated at 37° C. for 24 h, and were transferred to an anaerobic chamber for 24 h at 37° C. in anaerobic TSB containing 50 mM KNO3. Biofilms were then exposed to conalbumin and/or Ferrozine® for 24 h. Each treatment was complemented with the addition of 80 μM ferrous ammonium sulfate. After treatment, lids were rinsed once in 50 mM HEPES, air dried for 10 min and quantified by crystal violet staining. For biofilm prevention, anaerobic inoculum was amended with conalbumin and/or Ferrozine®. Media was replaced every 24 h by transferring the MBEC lid to a sterile plate containing growth media+/− treatments, and biofilms were allowed to develop for 168 h. Biomass was quantified as described above. Biological triplicates and six technical replicates (n=18) were used for each treatment.

The subject of the next assay is P. aeruginosa. The assay is described as follows: Planktonic growth rates with iron chelators. The class given is cell-based, Pseudomonas aeruginosa.
Assay [2] relates to P. aeruginosa PA14 wild type. The assay is described as follows: Flow cell biofilm development, wild type, 1% TSB with or without conalbumin.
In assay [3] the test system is P. aeruginosa PA14 mature biofilms. The assay is described as follows: MBEC assay, dissolution of mature biofilms. The format is cell-based, Pseudomonas aeruginosa. The following applies: conalbumin; mature biofilms; 24 h exposure. The method, then:
as §1

[4] abbreviates: Day 6, WT, 40 μg/ml conalbumin, 10 μM PCA or PYO.

B1: conalbumin: Fe(III)-binding protein of the transferrin family, an Fe(III) chelator; substantially iron-free, from Sigma-Aldrich (protein, UniProt P02789 20-705, looked up)
Ovotransferrin: APPKSVIRWCTISSPEEKKCNNLRDLTQQERISLTCVQKATYLDCIKAIANNEADAISLDGGQAFEAGLAPYKLKPIAAEVYEHTEGSTTSYYAVAVVKKGTEFTVNDLQGKTSCHTGLGRSAGWNIPIGTLLHRGAIEWEGIESGSVEQAVAKFFSASCVPGATIEQKLCRQCKGDPKTKCARNAPYSGYSGAFHCLKDGKGDVAFVKHTTVNENAPDQKDEYELLCLDGSRQPVDNYKTCNWARVAAHAVVARDDNKVEDIWSFLSKAQSDFGVDTKSDFHLFGPPGKKDPVLKDLLFKDSAIMLKRVPSLMDSQLYLGFEYYSAIQSMRKDQLTPSPRENRIQWCAVGKDEKSKCDRWSVVSNGDVECTVVDETKDCIIKIMKGEADAVALDGGLVYTAGVCGLVPVMAERYDDESQCSKTDERPASYFAVAVARKDSNVNWNNLKGKKSCHTAVGRTAGWVIPMGLIHNRTGTCNFDEYFSEGCAPGSPPNSRLCQLCQGSGGIPPEKCVASSHEKYFGYTGALRCLVEKGDVAFIQHSTVEENTGGKNKADWAKNLQMDDFELLCTDGRRANVMDYRECNLAEVPTHAVVVRPEKANKIRDLLERQEKRFGVNGSEKSKFMMFESQNKDLLFKDLTKCLFKVREGTTYKEFLGDKFYTVISSLKTCNPSDILQMCSFLEGK
modifications: iron-free
notes: substantially iron-free, from Sigma-Aldrich
As to B1, the “Prevention of biofilm growth” value in assay [1] is recorded as “ineffective in preventing biofilm growth”. Moreover, in the assay with P. aeruginosa, the “Effect on planktonic growth rates” value is “Neither compound affected planktonic growth rates”. Further, in assay [2] (setting [4]), the Max. biofilm thickness turned out to be 32 μm and the Substratum coverage is reported as 11.8 ± 1.3%. Further, the Total biomass in assay [2] (Day 6, WT, additives to 1% TSB: 40 μg/ml conalbumin, 10 μM PCA or PYO) turned out to be 0.80 ± 0.08 μm^3/μm^2. Besides, in assay [2] (Day 6, WT, calculated for the area covered by biomass, 40 μg/ml conalbumin, 10 μM PCA or PYO), the “Avg. thickness of biomass” value was 9.0 ± 0.7 μm. In addition, the “Biofilm formation with conalbumin (iron-free form) added” value in assay [2] (wild type, 1% TSB, 40 μg/ml conalbumin) is given as “neither strain formed biofilms”. The “Reduction of established biomass” value in assay [3] is on record as “did not significantly reduce established biomass”.
